{"source": "paper PMC10397247", "key": {"4H2619-bN": {"target": "T1, 4H2619-bN", "T1 chain": "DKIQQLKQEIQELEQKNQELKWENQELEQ", "test": "two-hybrid library CCNG1;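 note: natural log of median RNA to DNA barcode read ratio; higher means stronger binding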"}, "4H2691-bN": {"target": "T2, 4H2691-bN", "T2 chain": "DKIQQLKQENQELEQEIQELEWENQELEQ", "test": "two-hybrid library CCNG1"}, "4H2745-bN": {"target": "T3, 4H2745-bN", "T3 chain": "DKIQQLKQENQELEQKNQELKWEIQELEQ", "test": "two-hybrid library CCNG1"}, "4H3070-bN": {"target": "T4, 4H3070-bN", "T4 chain": "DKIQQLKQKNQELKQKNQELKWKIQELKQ", "test": "two-hybrid library CCNG1"}, "4H3112-bN": {"target": "T5, 4H3112-bN", "T5 chain": "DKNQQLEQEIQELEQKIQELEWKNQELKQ", "test": "two-hybrid library CCNG1"}, "4H342-bN": {"target": "T6, 4H342-bN", "T6 chain": "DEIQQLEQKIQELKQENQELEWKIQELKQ", "test": "two-hybrid library CCNG1"}, "4H344-bN": {"target": "T7, 4H344-bN", "T7 chain": "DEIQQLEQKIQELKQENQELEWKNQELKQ", "test": "two-hybrid library CCNG1"}, "4H363-bN": {"target": "T8, 4H363-bN", "T8 chain": "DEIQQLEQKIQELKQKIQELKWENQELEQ", "test": "two-hybrid library CCNG1"}, "4H3632-bN": {"target": "T9, 4H3632-bN", "T9 chain": "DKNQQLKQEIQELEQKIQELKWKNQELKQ", "test": "two-hybrid library CCNG1"}, "4H3907-bN": {"target": "T10, 4H3907-bN", "T10 chain": "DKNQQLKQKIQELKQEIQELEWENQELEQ", "test": "two-hybrid library CCNG1"}, "4H3961-bN": {"target": "T11, 4H3961-bN", "T11 chain": "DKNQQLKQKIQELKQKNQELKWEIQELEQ", "test": "two-hybrid library CCNG1"}, "4H470-bN": {"target": "T12, 4H470-bN", "T12 chain": "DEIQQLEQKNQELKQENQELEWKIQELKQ", "test": "two-hybrid library CCNG1"}, "4H496-bN": {"target": "T13, 4H496-bN", "T13 chain": "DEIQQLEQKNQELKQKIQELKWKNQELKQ", "test": "two-hybrid library CCNG1"}, "4H2219-AA": {"target": "T14, 4H2219-AA", "T14 chain": "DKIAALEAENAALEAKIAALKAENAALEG", "test": "two-hybrid library CCmax"}, "4H249-AA": {"target": "T15, 4H249-AA", "T15 chain": "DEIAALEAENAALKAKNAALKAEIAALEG", "test": "two-hybrid library CCmax", "conditions": "mean of both orientations"}, "4H2504-AA": {"target": "T16, 4H2504-AA", "T16 chain": "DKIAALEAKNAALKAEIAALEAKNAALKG", "test": "two-hybrid library CCmax", "conditions": "mean of both orientations"}, "4H2592-AA": {"target": "T17, 4H2592-AA", "T17 chain": "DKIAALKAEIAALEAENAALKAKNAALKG", "test": "two-hybrid library CCmax", "conditions": "mean of both orientations"}, "4H2611-AA": {"target": "T18, 4H2611-AA", "T18 chain": "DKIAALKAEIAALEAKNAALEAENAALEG", "test": "two-hybrid library CCmax", "conditions": "mean of both orientations"}, "4H2774-AA": {"target": "T19, 4H2774-AA", "T19 chain": "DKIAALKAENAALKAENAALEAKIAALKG", "test": "two-hybrid library CCmax", "conditions": "mean of both orientations"}, "4H3001-AA": {"target": "T20, 4H3001-AA", "T20 chain": "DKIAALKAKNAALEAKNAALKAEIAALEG", "test": "two-hybrid library CCmax", "conditions": "mean of both orientations"}, "4H3340-AA": {"target": "T21, 4H3340-AA", "T21 chain": "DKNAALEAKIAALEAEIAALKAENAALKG", "test": "two-hybrid library CCmax", "conditions": "mean of both orientations"}, "4H3381-AA": {"target": "T22, 4H3381-AA", "T22 chain": "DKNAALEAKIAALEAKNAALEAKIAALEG", "test": "two-hybrid library CCmax", "conditions": "mean of both orientations"}, "4H347-AA": {"target": "T23, 4H347-AA", "T23 chain": "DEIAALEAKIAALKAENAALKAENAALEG", "test": "two-hybrid library CCmax", "conditions": "mean of both orientations"}, "4H3493-AA": {"target": "T24, 4H3493-AA", "T24 chain": "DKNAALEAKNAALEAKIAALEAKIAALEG", "test": "two-hybrid library CCmax"}, "4H376-AA": {"target": "T25, 4H376-AA", "T25 chain": "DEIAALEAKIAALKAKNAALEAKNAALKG", "test": "two-hybrid library CCmax", "conditions": "mean of both orientations"}, "4H406-AA": {"target": "T26, 4H406-AA", "T26 chain": "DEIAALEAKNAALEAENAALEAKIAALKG", "test": "two-hybrid library CCmax", "conditions": "mean of both orientations"}, "4H688-AA": {"target": "T27, 4H688-AA", "T27 chain": "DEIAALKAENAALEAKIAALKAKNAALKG", "test": "two-hybrid library CCmax", "conditions": "mean of both orientations"}, "4H963-AA": {"target": "T28, 4H963-AA", "T28 chain": "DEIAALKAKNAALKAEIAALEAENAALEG", "test": "two-hybrid library CCmax", "conditions": "mean of both orientations"}}, "data": [{"binder": "DKIQQLKQEIQELEQKNQELKWENQELEQ", "note": "[4H2619-bN]", "values": [{"measurement": "interaction score", "setting": "4H2619-bN", "result": 0.209}, {"measurement": "interaction score", "setting": "4H2691-bN", "result": -1.49}, {"measurement": "interaction score", "setting": "4H2745-bN", "result": -0.673}, {"measurement": "interaction score", "setting": "4H3070-bN", "result": -0.245}, {"measurement": "interaction score", "setting": "4H3112-bN", "result": 0.149}, {"measurement": "interaction score", "setting": "4H342-bN", "result": 1.23}, {"measurement": "interaction score", "setting": "4H344-bN", "result": 0.255}, {"measurement": "interaction score", "setting": "4H363-bN", "result": -1.48}, {"measurement": "interaction score", "setting": "4H3632-bN", "result": -0.529}, {"measurement": "interaction score", "setting": "4H3907-bN", "result": -0.483}, {"measurement": "interaction score", "setting": "4H3961-bN", "result": -1.65}, {"measurement": "interaction score", "setting": "4H470-bN", "result": -0.608}, {"measurement": "interaction score", "setting": "4H496-bN", "result": -1.66}]}, {"binder": "DKIAALEAENAALEAKIAALKAENAALEG", "note": "[4H2219-AA]", "values": [{"measurement": "interaction score", "setting": "4H2219-AA", "result": -1.21}, {"measurement": "interaction score", "setting": "4H249-AA", "result": -1.35}, {"measurement": "interaction score", "setting": "4H2504-AA", "result": 2.21}, {"measurement": "interaction score", "setting": "4H2592-AA", "result": -0.491}, {"measurement": "interaction score", "setting": "4H2611-AA", "result": -1.33}, {"measurement": "interaction score", "setting": "4H2774-AA", "result": -0.727}, {"measurement": "interaction score", "setting": "4H3001-AA", "result": -0.483}, {"measurement": "interaction score", "setting": "4H3340-AA", "result": -1.39}, {"measurement": "interaction score", "setting": "4H3381-AA", "result": -1.13}, {"measurement": "interaction score", "setting": "4H347-AA", "result": -1.36}, {"measurement": "interaction score", "setting": "4H3493-AA", "result": -1.56}, {"measurement": "interaction score", "setting": "4H376-AA", "result": -1.64}, {"measurement": "interaction score", "setting": "4H406-AA", "result": -1.81}, {"measurement": "interaction score", "setting": "4H688-AA", "result": -0.493}, {"measurement": "interaction score", "setting": "4H963-AA", "result": 0.45}]}]}
